For series [1] the following is noted: cited from earlier work.
For series [2] the following is noted: elevated salt, dilution, extended storage; cited from earlier work.
Series [3] has as its system Toxins A and B (encoded by tcdAB) in C. difficile. The experiment in a line: Premier ToxinA&B ELISA of toxin production. Type of series: cell-based, Clostridium difficile. The conditions noted are these: FIG. 5. As for the experimental part:
A commercially available ELISA kit (Enzyme-Linked Immunosorbent Assay), Premier™ ToxinA&B, was obtained from Meridian Bioscience Inc. All assays were performed following manufacturers instructions.
(§1) Conditions of cell growth were as described in Example 1, with care being taken to ensure that the experimental culture consisted of early-exponential vegetative cells that would enter stationary phase during the course of the experiment. Toxin production is developmentally controlled and only beings to occur as cells enter this phase.
The absorbance of the cells was used to assay an equal amount of biomaterial in each experiment using the described ELISA kit. […] This was set at 100% activity and all other samples were compared to this (FIG. 5). […] At 48 h, where maximal production is expected, only 22% of the untreated level of production was achieved. The maximum level of production for the treated cells was 32% at 72 h.

Series [4] relates to C. difficile. In words: Cell growth by Optical Density at 600 nm (Example 2). The conditions noted are these: OD 600 nm; FIG. 4. It is filed as cell-based, Clostridium difficile. Here is the method:
as §1
Optical Density was measured at 600 nm in a standard spectrophotometer quantified cell growth.

The next series relates to C. difficile Strain 630. In words: Bioassay to measure sporulation (spore and total cell CFU/ml). Type of series: cell-based, Clostridium difficile. Here is the method:
All procedures were performed under anaerobic conditions at room temperature unless otherwise stated. All media and agar plates used were placed in an anaerobic chamber at least 24 hours prior to use. A standard bioassay to measure sporulation was performed using untreated cells, those mixed with nanoparticles consisting of either the Spo0A TFD or empty nanoparticles (containing no TFDs), to determine the effect on C. difficile Strain 630 (a laboratory reference strain that has been sequenced).
An initial overnight culture was generated by mixing 100 μl of a glycerol stock of C. difficile (consisting of spore cells of frozen in 10% glycerol and stored at −20° C.) with 10 ml Robertson's Cooked Meat Medium (Robertson (1916) J. Path. Bacteria 20: 327-349). The following day, 10 ml BHIS media (Brain Heart Infusion media, (McFaddin J. F. (1985) Media for Isolation-Cultivation-Identification-Maintenance of medical Bacteria, Vol. I, Williams and Wilkins, Baltimore) supplemented with 0.1% L-cysteine) was inoculated with 1% of the culture grown in Robertson's (consisting mostly of spore cells). […] 100 μl of this culture was used to inoculate 10 ml of BHIS which was allowed to grow until it had reached an OD600 of approximately 0.3. At this stage the growth is due to germination of spores and consists mainly of exponentially growing vegetative cells. This culture was then used to inoculate the experimental cultures that were performed in triplicate in 10 ml cultures in BHIS incubated at 37° C. The three conditions used were: A) untreated cells; B) treated with 1% (v/v) empty nanoparticles to give a final concentration of 8 μg/ml compound 7—12; C) nanoparticles loaded with Spo0A TFD to give final concentrations of 8 μg/ml compound 7—12 and 0.4 μg/ml TFD.
Aliquots were withdrawn from the cultures at TO, 24, 48, 72 and 96 h and used to calculate the total cell density and spore cell density.
Calculation of Spore Cell Density To measure the number of Colony Forming Units per ml of culture (CFU/ml) of spore cells, a 0.5 ml aliquot was withdrawn and exposed to anaerobic conditions for 25 minutes at 60° C. This heat shock step efficiently kills the vegetative cells but not the spores. A serial dilution of the treated sample was prepared in PBS buffer (Phosphate Buffered Saline) over a range of 10^−1 to 10^−6. 10 μl of each dilution was spotted in duplication onto BHIS plates supplemented with 0.1% taurocholate (which enhances germination), the spots allowed to dry and the plates incubated for 24 h at 37° C. The number of colonies was then counted and the CFU/ml of original culture calculated.
To measure CFU/ml of total cells, meaning vegetative cells plus spore cells, a 0.5 ml aliquot was withdrawn and exposed to anaerobic conditions for 25 minutes at room temperature (to control for the time taken to heat shock the spore sample). The samples were then processed as described above.

Series [5] deals with C. difficile. In words: Cell growth by Optical Density at 420 nm (Example 3). It is filed as cell-based, Clostridium difficile. The conditions noted are these: absorbance 420 nm, over the time course; FIG. 6. As for the experimental part: Optical Density was measured at 420 nm in a standard spectrophotometer quantified cell growth.
The subject of series [6] is C. difficile. In words: Minimum Inhibitory Concentration (MIC) method. To be noted: with reference to the compound 7—12 component; 24-well plates, 2 ml BHIS; 1 nM SigH TFD in the loaded nanoparticle; FIG. 7.
Description: Growth was determined by the Minimum Inhibitory Concentration (MIC) method (Wiegand (2008) Nature Protocols 3: 163-175). Essentially, the antibiotic is diluted to the point where it is ineffective and is no longer able to prevent growth, as judged by the media remaining clear. For C. difficile, these experiments were performed in duplicate in 24-well cell plates containing 2 ml BHIS media with various concentrations of empty nanoparticles or those loaded with the SigH TFD.

Entries after “also recorded” stand apart in the source; their conditions may differ. Where only a bound is given, the exact number is not on record here.

Consider `Nc1c2c([n+](CCCCCCCCCC[n+]3c4c(c(N)c5ccccc53)CCCC4)c3ccccc13)CCCC2.[Cl-].[Cl-]` [Compound 7, 10,10′-(decane-1,10-diyl)bis(9-amino-1,2,3,4-tetrahydroacridinium)dichloride], for which the “in vitro toxicity relative to dequalinium” value in series [1] is listed as “lower toxicity in vitro compared to dequalinium; also recorded: less in vitro toxicity than dequalinium”. Besides, the “stability of complexes formed” value in series [2] is on record as “forms more stable complexes”.

B1: TcdR TFD: dumbbell TFD from TcdRDB1/TcdRDB2 with TcdR recognition site, delivered in compound 7—12 nanoparticles (nucleic acid)
chain 1: CTTGGTTTTTCCAAGAAGTTTACAAAATTATATTAGAATAACTTTTTATT
chain 2: CCCTCTTTTTGAGGGAATAAAAAGTTATTCTAATATAATTTTGTAAACTT
modifications: dumbbell, delivered in nanoparticles, chemistry not fully specified
notes: dumbbell TFD from TcdRDB1/TcdRDB2 with TcdR recognition site, delivered in compound 7—12 nanoparticles
Regarding B1, in series [3] (at 48 h, untreated cells at 48 h set at 100%), the “toxin production, % of untreated level” value was 22%. Further, the “maximum level of toxin production, % of untreated 48 h level” value in series [3] (at 72 h, untreated cells at 48 h set at 100%) was found to be 32%. The “pattern of Toxins production (in words)” value in series [3] (time course) is given as “produces much less of the Toxins”. Further, in the series with C. difficile [4], the “cell growth (growth curves, in words)” value is on record as “failed to grow in a manner similar to untreated cells”.

B2: Spo0A TFD: dumbbell TFD from Spo0ADB1/Spo0ADB2 with Spo0A binding site, delivered in compound 7—12 nanoparticles (nucleic acid)
chain 1: CTTGGTTTTTCCAAGAGCTTGTGTAGAAGGTTGTCCACAAGTTGTGAAATTTGTCGAAAAGCTATTTATC
chain 2: CCCTCTTTTTGAGGGGATAAATAGCTTTTCGACAAATTTCACAACTTGTGGACAACCTTCTACACAAGCT
modifications: dumbbell decoy delivered in nanoparticles, further chemistry not given here
For the molecule B2, the density of spores in the series with C. difficile Strain 630 (after heat shock 25 minutes at 60° C., 8 μg/ml compound 7—12 and 0.4 μg/ml TFD, FIG. 3) is 1.54×10^2 CFU/ml. The “effect on sporulation (in words)” value with C. difficile Strain 630 (delivery to cells with nanoparticles, Example 1) is “strong inhibition of sporulation”. The “spores as percentage of total cells” value in the series with C. difficile Strain 630 (treated samples, FIG. 3) is < 8.66×10^−5%. Also, the “reduction of sporulation relative to untreated culture” value in the series on C. difficile Strain 630 (treated versus untreated, FIG. 3) is given as “six-fold”. Besides, in the series on C. difficile Strain 630 (vegetative cells plus spore cells, nanoparticles giving 8 μg/ml compound 7—12 and 0.4 μg/ml TFD, BHIS, 37° C., FIG. 3), the “density of total cells” value is 1.78×10^8 CFU/ml.

B3: FapR TFD: dumbbell TFD from FapRDB1/FapRDB2 with FapR recognition site, delivered in compound 7—12 nanoparticles (nucleic acid)
chain 1: CTTGGTTTTTCCAAGTAGAATTAGTACCTGATACTAATAATT
chain 2: GCCTCTTTTTGAGGCAATTATTAGTATCAGGTACTAATTCTA
modifications: nanoparticle delivery, chemistry not fully specified
notes: dumbbell TFD from FapRDB1/FapRDB2 with FapR recognition site, delivered in compound 7—12 nanoparticles
Regarding B3, the “cell growth (growth curves, in words)” value with C. difficile [5] is “failed to grow over the time course of the experiment”.

B4: SigH TFD: dumbbell TFD from SigH DB1/DB2 with binding sites for both Spo0A and SigH, delivered in compound 7—12 nanoparticles (nucleic acid)
chain 1: CTTGGTTTTTCCAAGTAATACGACAAACTAGTTAAATTTCATTGAAGGAATAAAAATATAATTATAGAATTGATTA
chain 2: GCCTCTTTTTGAGGCTAATCAATTCTATAATTATATTTTTATTCCTTCAATGAAATTTAACTAGTTTGTCGTATTA
modifications: dumbbell decoy delivered in nanoparticles, further chemistry not given here
In turn, B4 yielded an MIC against C. difficile [6] of 3.4 nM. The “effect on sporulation (in words)” value with C. difficile Strain 630 (time course similar to Example 1, FIG. 8) is given as “block sporulation significantly”.
